Molecular target: HlmI (thioredoxin-disulfide oxidoreductase-like dithiol oxidase of the holomycin gene cluster) (Streptomyces clavuligerus)
Test: SEC

stoichiometry N: 2
Substance: HlmI (thioredoxin-disulfide oxidoreductase-like dithiol oxidase of the holomycin gene cluster) (enzyme)

— PMC3101288
